Assay [1] concerns the target H3–H4 complex with H3 labeled with Cy3 at Leu-65 (H3 C110A) (Xenopus laevis) (UniProt P84233). Description: fluorescence polarisation.
Assay [2] concerns the target H3–H4 complex with H3 labeled with Cy3 at Gln-125 (H3 C110A) (Xenopus laevis) (UniProt P84233). Briefly: fluorescence polarisation.
Assay [3] deals with gH3–gH4 heterodimer (globular forms of histones H3 and H4) (Xenopus laevis) (UniProt P84233). Briefly: SEC.
Assay [4] addresses H3–H4 complex with H3 labeled with Cy3 at Gln-125 (H3 C110A) (Xenopus laevis) (UniProt P84233). Description: fluorescence polarisation. The source holds these as a separate data set.
In assay [5] the target is RbAp48–H3–H4 complex, labeled with Cy3 at Gln-125 on H3 (human | Xenopus laevis) (UniProt Q09028). Briefly: fluorescence polarisation.

Our source for the Kd and stoichiometry N (ASF1^1-159 : gH3–gH4) values is publication PMC3538076.

Where “and” joins values, the source holds several entries; their conditions need not be identical. Equal entries are not always repeated. Where two headings read alike, the source gives them in different places.

As to “human retinoblastoma-associated protein RbAp48 (from UniProt Q09028 1-425) (natural protein)”, in assay [1], the Kd came out at 0.61 nM.
In the case of “human ASF1^1-159 (anti-silencing function protein 1, residues 1-159) (from UniProt Q9Y294 1-159) (domain or fragment)”, the Kd is 0.27 nM in assay [2]; 0.3 nM in assay [4]; 7.1 nM and 3 nM and 6.8 nM in assay [5]. In addition, the stoichiometry N (ASF1^1-159 : gH3–gH4) in assay [3] stood at 1.
